Reference: IntAct's records for PubMed 10713164

Target: ncor2_human NCOR2 (UniProt Q9Y618)

Substance: Recombining binding protein suppressor of hairless (Homo sapiens), Q06330 E233A;E234A;F235A
- effect of a mutation on the interaction: decreasing interaction strength
